Measurements published in article doi:10.1101/803361.

Experiments:
[1] = molecular target: T1, Human heat shock transcription factor 1 (Hsf1), wild type (human), Q00613; assay: SEC + native gel or EMSA; conditions: remark: other sources report otherwise
T1 chain: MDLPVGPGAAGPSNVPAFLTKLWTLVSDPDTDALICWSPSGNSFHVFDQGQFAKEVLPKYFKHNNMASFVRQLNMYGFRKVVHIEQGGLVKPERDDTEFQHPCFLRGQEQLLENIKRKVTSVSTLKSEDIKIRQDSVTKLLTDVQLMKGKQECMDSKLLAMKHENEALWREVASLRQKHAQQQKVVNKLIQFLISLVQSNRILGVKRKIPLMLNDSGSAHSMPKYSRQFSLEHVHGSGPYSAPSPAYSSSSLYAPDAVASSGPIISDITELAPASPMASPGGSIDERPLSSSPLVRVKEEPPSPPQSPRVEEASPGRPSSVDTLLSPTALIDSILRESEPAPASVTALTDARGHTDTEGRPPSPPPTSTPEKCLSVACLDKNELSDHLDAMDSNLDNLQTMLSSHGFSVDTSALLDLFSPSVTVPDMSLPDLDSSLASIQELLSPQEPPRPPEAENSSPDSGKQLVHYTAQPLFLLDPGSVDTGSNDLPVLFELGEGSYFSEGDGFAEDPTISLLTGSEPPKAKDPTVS

[2] = molecular target: T1, Human heat shock transcription factor 1 …; assay: native gel or EMSA; conditions: remark: other sources report otherwise

B1: Human heat shock transcription factor 1 (Hsf1), wild type, Q00613 1-529 (natural protein)
chain: T1 chain
- stoichiometry N [1]: 3
- stoichiometry N [2]: > 3
